Among the data in patent US20050074401A1 are Immunoreactivity and Immunoreactivity (I), % of the value before i.v. injection values, retold here.

Bounds are passed on as bounds.

The target of assay [1] is recombinant ED-B domain of fibronectin, conjugated to Sepharose (UniProt P02751). Description: immunoreactivity of the labelled product (percent bound to ED-B Sepharose column, assay as in P-0168).
Assay [2] has the same target. The assay is described as follows: immunoreactivity of the labelled product, Iodogen preparation (percent bound to ED-B Sepharose column, assay as in P-0168).
Assay [3] shares this target. Description: immunoreactivity of the labelled product, chloramine-T preparation (percent bound to ED-B Sepharose column, assay as in P-0168).
For assay [4] the target is unchanged. The assay is described as follows: percent of 125I-labelled antibody bound to ED-B Sepharose column, before injection.
For assay [5] the target is unchanged. The assay is described as follows: ED-B Sepharose column on plasma 3 h after i.v. injection of 125I-antibody, normalised to value before injection.
Assay [6] has the same target. Description: ED-B Sepharose column on plasma 6 h after i.v. injection of 125I-antibody, normalised to value before injection.
For assay [7] the target is unchanged. Description: ED-B Sepharose column on plasma 24 h after i.v. injection of 125I-antibody, normalised to value before injection.
Assay [8] has the same target. Description: ED-B Sepharose column on plasma 48 h after i.v. injection of 125I-antibody, normalised to value before injection.
For assay [9] the target is unchanged. Description: ED-B Sepharose column on plasma 72 h after i.v. injection of 125I-antibody, normalised to value before injection.
The target is the same in assay [10]. Description: ED-B Sepharose column on plasma 144 h after i.v. injection of 125I-antibody, normalised to value before injection.

radioiodinated (125I) scFv(L19)2, sequence (VH): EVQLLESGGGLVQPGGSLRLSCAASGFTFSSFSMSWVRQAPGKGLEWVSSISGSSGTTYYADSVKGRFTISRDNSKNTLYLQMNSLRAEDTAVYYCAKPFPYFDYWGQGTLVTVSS
radioiodinated (125I) scFv(L19)2, sequence (VL): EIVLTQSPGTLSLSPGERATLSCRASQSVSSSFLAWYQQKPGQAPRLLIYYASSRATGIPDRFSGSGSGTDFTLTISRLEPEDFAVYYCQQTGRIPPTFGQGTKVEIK
radioiodinated (125I) L19-IgG1, sequence (VH): as the sequence (VH) above
radioiodinated (125I) L19-IgG1, sequence (VL): as the sequence (VL) above
radioiodinated (125I) L19-SIP, sequence (VH): as the sequence (VH) above
radioiodinated (125I) L19-SIP, sequence (VL): as the sequence (VL) above
recombinant ED-B domain of fibronectin, conjugated to Sepharose, sequence (P02751 1266-1356 limits assumed): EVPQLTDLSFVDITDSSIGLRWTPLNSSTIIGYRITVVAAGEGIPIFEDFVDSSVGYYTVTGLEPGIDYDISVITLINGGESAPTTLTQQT
I-131-L19-SIP, sequence (VH): as the sequence (VH) above
I-131-L19-SIP, sequence (VL): as the sequence (VL) above
Tc-99m-L19-SIP, sequence (VH): as the sequence (VH) above
Tc-99m-L19-SIP, sequence (VL): as the sequence (VL) above
Re-188-L19-SIP, sequence (VH): as the sequence (VH) above
Re-188-L19-SIP, sequence (VL): as the sequence (VL) above
In-111-MX-DTPA-ε-HN(Lys)-L19-SIP, sequence (VH): as the sequence (VH) above
In-111-MX-DTPA-ε-HN(Lys)-L19-SIP, sequence (VL): as the sequence (VL) above
Y-88-MX-DTPA-ε-HN(Lys)-L19-SIP, sequence (VH): as the sequence (VH) above
Y-88-MX-DTPA-ε-HN(Lys)-L19-SIP, sequence (VL): as the sequence (VL) above
In-111-DOTA-C-Benzyl-p-NCS-ε-HN(Lys)-L19-SIP, sequence (VH): as the sequence (VH) above
In-111-DOTA-C-Benzyl-p-NCS-ε-HN(Lys)-L19-SIP, sequence (VL): as the sequence (VL) above
Tc-99m-MAG2-ε-HN(Lys)-L19-SIP, sequence (VH): as the sequence (VH) above
Tc-99m-MAG2-ε-HN(Lys)-L19-SIP, sequence (VL): as the sequence (VL) above
I-123-L19-SIP, sequence (VH): as the sequence (VH) above
I-123-L19-SIP, sequence (VL): as the sequence (VL) above
I-124-L19-SIP, sequence (VH): as the sequence (VH) above
I-124-L19-SIP, sequence (VL): as the sequence (VL) above
Lu-177-DOTA-C-Benzyl-p-NCS-ε-HN(Lys)-L19-SIP, sequence (VH): as the sequence (VH) above
Lu-177-DOTA-C-Benzyl-p-NCS-ε-HN(Lys)-L19-SIP, sequence (VL): as the sequence (VL) above
In-111-MX-DTPA-Maleimide-S(Cys)-L19-SIP-R (R=reduced), sequence (VH): as the sequence (VH) above
In-111-MX-DTPA-Maleimide-S(Cys)-L19-SIP-R (R=reduced), sequence (VL): as the sequence (VL) above
(3-(4-hydroxy-3-[131I]iodo-phenyl)-propionate)-L19-SIP, sequence (VH): as the sequence (VH) above
(3-(4-hydroxy-3-[131I]iodo-phenyl)-propionate)-L19-SIP, sequence (VL): as the sequence (VL) above

As for “(3-(4-hydroxy-3-[131I]iodo-phenyl)-propionate)-L19-SIP (from UniProt P01854 319-426) (antibody)”, the Immunoreactivity in assay [1] amounted to 69%.
Still for that read-out and setting: the figure for “I-123-L19-SIP (from UniProt P01854 319-426) (antibody)” is 84%; for “I-124-L19-SIP (from UniProt P01854 319-426) (antibody)” it is 86%.
Take “I-131-L19-SIP (from UniProt P01854 319-426) (antibody)”: the Immunoreactivity in assay [2] worked out at 78%; in assay [3] it was 76%.
On to “In-111-DOTA-C-Benzyl-p-NCS-ε-HN(Lys)-L19-SIP (from UniProt P01854 319-426) (antibody)”, for which, in assay [1], the Immunoreactivity stood at 75.1%.
The same measure, in the same setting: the figure for “In-111-MX-DTPA-Maleimide-S(Cys)-L19-SIP-R (R=reduced) (from UniProt P01854 319-426) (antibody)” is 88.5%; for “In-111-MX-DTPA-ε-HN(Lys)-L19-SIP (from UniProt P01854 319-426) (antibody)” it is 77.5%; for “Lu-177-DOTA-C-Benzyl-p-NCS-ε-HN(Lys)-L19-SIP (from UniProt P01854 319-426) (antibody)” it is 73.4%.
Still for that read-out and setting: the figure for “Re-188-L19-SIP (from UniProt P01854 319-426) (antibody)” is 91.7%; for “Tc-99m-L19-SIP (from UniProt P01854 319-426) (antibody)” it is 91.4%; for “Tc-99m-MAG2-ε-HN(Lys)-L19-SIP (from UniProt P01854 319-426) (antibody)” it is 81.1%.
The same measure, in the same setting: the value for “Y-88-MX-DTPA-ε-HN(Lys)-L19-SIP (from UniProt P01854 319-426) (antibody)” was 70.5%.
With “radioiodinated (125I) L19-IgG1 (from UniProt P01857 1-330) (antibody)”, the Immunoreactivity in assay [4] was > 90%. The Immunoreactivity (I), % of the value before i.v. injection is 100% in [5]; 100% in assay [6]; 95% in assay [7]; 100% in assay [8]; 100% in assay [9]; 95% in assay [10].
For “radioiodinated (125I) L19-SIP (from UniProt P01854 319-426) (antibody)”, in assay [4], the Immunoreactivity is > 90%. In addition, the Immunoreactivity (I), % of the value before i.v. injection stood at 100% in [5]; 100% in assay [6]; 100% in assay [7]; 95% in assay [8]; 100% in [9]; 95% in assay [10].
radioiodinated (125I) scFv(L19)2: the Immunoreactivity in assay [4] is > 90%. Besides, the Immunoreactivity (I), % of the value before i.v. injection in assay [5] was found to be 36%; in assay [6] it was 32%; in assay [7], 27%; in [8] it was 14%; in [9], 9%; in assay [10], 4%.
